Experiments:
[1] = tested on: CAP7/CAP8/CAP9 construct; assay: CAP assay variant with DNA linked by a long flexible linker; assay type: binding, E. coli; conditions: 75 nM CAP
Description: The properties of the assay illustrated in FIG. 1 depend upon the total concentration of the nucleic acid components. By covalently linking the two DNA duplexes—i.e., the components of the assay—by a long flexible linker, the assay becomes independent of DNA concentration, within a range of detectability of fluorescence signal and within a range of concentration required for efficient protein binding. FIG. 11 illustrates the design this variant of the assay for CAP detection. The nucleic acid components of the assay were covalently linked during oligonucleotide synthesis by introducing 12 moieties of the Spacer 18 phosphoramidate (Glen Research, Sterling, Va.), the structure of which is shown in FIG. 11B. The addition of 12 units of Spacer 18 results in a distance of ˜270 Å between the linked oligonucleotides. […]
FIG. 12 illustrates the enhanced performance of the variation of the invention depicted in FIG. 11. […] The kinetics of CAP induced fluorescence quenching was also studied to determine the incubation time necessary for the completion of the assay (FIG. 12B). In this experiment, the fluorescence intensity of 50 nM of the CAP7/CAP8/CAP9 construct was monitored as a function of time at 520 nm with the excitation wavelength set at 490 nm. At the time indicated by the arrow in FIG. 12B, 75 nM CAP protein was added and the monitoring of the fluorescence signal was resumed. […]

[2] = tested on: CAP5/CAP3 and CAP4/CAP1 nucleic acid duplexes; assay: CAP assay with 7-diethylaminocoumarin-3-carboxylic acid donor and dabcyl acceptor; assay type: binding, E. coli; conditions: 100 nM CAP, 50 nM duplexes, 200 μM cAMP
Description: Amino-Modifier C2 dT (Glen Research, Sterling, Va.) was incorporated into positions that are equivalent to the positions at which fluorescein-dT and dabcyl-dT has been used previously in CAP2 and CAP4 oligonucleotides, respectively. Amino-Modifier C2 dT contains a reactive aliphatic amino group that can be used to covalently attach any amino-reactive fluorescence probe. CAP5 (SEQ ID NO:7) and CAP6 (SEQ ID NO:8) oligonucleotides were modified with 7-diethylaminocoumarin-3-carboxylic acid, succinimidyl ester. This fluorochrome is excited at 433 nm and the maximum emission occurs at 475 nm providing the possibility of testing the assay with different emission colors. To modify the […], ˜20 nmoles of the oligonucleotides were dissolved in 50 μl of 50 mM NaHCO3 (pH 8.3) and 50 nmoles of dry 7-diethylaminocoumarin-3-carboxylic acid, succinimidyl ester (Molecular Probes, Eugene, Oreg.) were added. The reaction mixture was incubated overnight at room temperature. […]
In the first experiment (FIG. 8), the pair of CAP5/CAP3 and CAP4/CAP1 nucleic acid duplexes were tested in the CAP assay. In this format, the 7-diethylaminocoumarin-3-carboxylic acid label present in the CAP5/CAP3 duplex functions as the fluorescence donor and the dabcyl label present in the CAP4/CAP1 duplex functions as a fluorescence acceptor.

[3] = tested on: CAP nucleic acid binding element (CAP10/CAP11 and CAP12/CAP13); assay: multiwell plate assay, immobilized CAP10/CAP11 and biotin-labeled CAP12/CAP13, streptavidin-peroxidase detection; conditions: for Absorbance (450 nm), + CAP: 200 μM cAMP
Procedure: To illustrate the extensive flexibility of the invention in terms of detection mode, an experiment following the general design depicted in FIG. 1E was performed. The following oligonucleotides, which when fully assembled contain a complete CAP nucleic acid binding element, were synthesized (X=amino-dT; B=biotin):
The CAP10 oligonucleotide was hybridized with the CAP11 oligonucleotide to generate the first nucleic acid component. The CAP 12 oligonucleotide was hybridized with the CAP13 oligonucleotide to generate the second nucleic acid component. For hybridization, appropriate oligonucleotides were (1) mixed at 10 μM concentration in 100 μl of buffer (500 mM Na2HPO4, pH 8.6, 1 mM EDTA, in the case of CAP10/CAP11 oligonucleotides; and 20 mM Tris, pH 8.0, 100 mM NaCl, 10 μM EDTA, in the case of CAP12/CAP13 oligonucleotides), (2) heated for 1 min at 95° C., and then (3) cooled to 25° C for 1 hr. The first nucleic acid component (CAP10/CAP11 half-site duplex) was covalently attached to the wells of a N-oxysuccinimide-activated 96 well plate (DNA-BIND, Corning, Acton, Mass.) by incubating 200 μl of first nucleic acid component (at 100 nM) per well in 500 mM Na2HPO4 (pH 8.6), 1 mM EDTA buffer for 1 hr followed by washing with 50 mM Tris (pH 8.0), 100 mM NaCl, 1 mM EDTA containing 0.1 mg/ml BSA. […] After incubation for 1 hr at room temperature, the wells were washed twice with the buffer followed with the addition of streptavidin-linked horseradish peroxidase (Pierce, Rockford, Ill.) at the dilution recommended by the manufacturer. After 30 min of incubation, the wells were washed twice with buffer followed with the addition of 100 μl of Turbo-TMB™ peroxidase substrate solution (Pierce, Rockford, Ill.). […] The absorbance at 450 nm of the sample and control wells were read using a standard microplate reader.

B1: CAP: bacterial transcription activator from E. coli which binds DNA in a sequence specific, cAMP-dependent manner (protein, UniProt P0ACJ8 2-210, looked up)
DNA-binding transcriptional …: VLGKPQTDPTLEWFLSHCHIHKYPSKSTLIHQGEKAETLYYIVKGSVAVLIKDEEGKEMILSYLNQGDFIGELGLFEEGQERSAWVRAKTACEVAEISYKKFRQLIQVNPDILMRLSAQMARRLQVTSEKVGNLAFLDVTGRIAQTLLNLAKQPDAMTHPDGMQIKITRQEIGQIVGCSRETVGRILKMLEDQNLISAHGKTIVVYGTR
time for completion of the reaction [1]: ≤ 20 s
quenching of the fluorescence signal ([1]; 50 nM construct, 200 μM cAMP): ~70%
quenching of the fluorescence signal [2]: ~70%
increase in absorbance signal compared to controls without CAP or cAMP ([3]; 10 nM CAP12/CAP13): approximately 3 fold
Absorbance (450 nm), + CAP ([3]; 10 nM CAP12/CAP13, 250 nM CAP): 0.7308
Absorbance (450 nm), + CAP ([3]; 20 nM CAP12/CAP13, 250 nM CAP): 0.8584

— US7172865B2, “Rapid and sensitive assay for the detection and quantification of coregulators of nucleic acid binding factors” (Saint Louis University, priority 2001, dated 2007)
